The text below walks through data of US20070027086A1 (ACTION PHARMA A S, published 2007).

In one test the target is T1, human MC5-receptor (human, UniProt P33032 1-325).
T1 construct: whole, on cells
As to the kind of experiment: competition with [^125I]NDP-MSH on COS cells expressing human MC5 receptor; Ki by Cheng-Prusoff. The procedure: (§1) Expression of receptor clones. Human MC1- and MC5-receptor DNAs (Chhajlani and Wikberg 1992; Chhajlani et al., 1993), cloned into the expression vector pRc/CMV (InVitrogen Corp., USA), and human MC3- and human MC4-receptor DNAs (Gantz et al., 1993a & b), cloned into the expression vector pCMV/neo, were used. COS cells were grown and transfected with receptor clones as described (Schiöbth et al. 1995, 1996b). After transfection cells were cultivated for 48 h, detached from the Petri dishes, and used for radioligand binding as described (Schiöth et al. 1995, 1996b).
(§2) Binding studies. […] The competition data were analyzed by fitting it to the logistic function using non-linear regression analysis. The Kᵢ-values were then calculated from the thus obtained IC50-values by using the Cheng and Prusoff equation, essentially as described by Schiöth et al. 1995, 1996b.

Test [1] deals with T2, native mouse MC1-receptor (MSH-receptor of mouse B16 melanoma cells and of mouse RAW 264.7 cells) (mouse, UniProt Q01727 1-315).
T2 construct: whole, on cells; also called B16 melanoma cell MSH-receptor
Briefly: competition with 0.2 nM [^125I]NDP-MSH on mouse B16-F1 melanoma cells (native mouse MC1 receptor). The procedure:
Assays for MSH-receptor binding was done essentially as described (Xia et al., Cancer Letters, 1996, 98, 157-162), in principle according to earlier described methods (Eberle et al., J. Recept. Res. 1991, 11, 311-322). In brief, collected cells were washed with binding buffer (for composition of binding buffer see below) distributed into 96 well plates and sedimented onto the well bottoms by centrifugation. […] After incubation the plates were put on ice, centrifuged and the cells washed with 0.1 ml of ice-cold binding buffer, centrifuged and the binding buffer was sucked off. The finally sedimented and washed cells were then detached from the plates with 0.2 ml of 0.1 N NaOH. Radioactivity was counted by using a Wallac, Wizard automatic gamma counter. The competition data were analysed by law of massaction computer modelling essentially as described (Bergstrom & Wikberg, Acta Pharmacol. Toxicol. 1986, 59, 270-278).

Test [2] deals with T3, human MC1-receptor (melanocortin 1 receptor) (human, UniProt Q01726 1-317).
T3 construct: whole, on cells; Recombinant receptor on transfected cells
Briefly: competition with [^125I]NDP-MSH on COS cells expressing human MC1 receptor; Ki by Cheng-Prusoff. The procedure: as §1, §2

For test [3], the target named is T3, human MC1-receptor (melanocortin 1 …). As to the kind of experiment: cell-based or functional assay.
Test [4] concerns the target T4, human MC3-receptor (human, UniProt P41968 1-323).
T4 construct: whole, on cells
Briefly: competition with [^125I]NDP-MSH on COS cells expressing human MC3 receptor; Ki by Cheng-Prusoff. The procedure: as §1, §2

The target in another test is T5, human MC4-receptor (human, UniProt P32245 1-332).
T5 construct: whole, on cells
Briefly: competition with [^125I]NDP-MSH on COS cells expressing human MC4 receptor; Ki by Cheng-Prusoff. The procedure:
as §1, §2

In test [5] the target is T4, human MC3-receptor. Briefly: ratio of Ki values, competition with [^125I]NDP-MSH on COS-1 cells expressing human MC receptors. The procedure:
as §1, §2

Test [6] deals with T2, native mouse MC1-receptor (MSH-receptor …). Briefly: competition with 0.1 nM [^125I]NDP-MSH on mouse RAW 264.7 macrophage cells (native mouse MC1 receptor). The procedure:
MSH-receptor binding was done essentially as described (Xia et al., Cancer Letters, 1996, 98, 157-162), in principle according to earlier described methods (Eberle et al., J. Recept Res. 1991, 11, 311-322). In brief, the collected cells were washed, distributed into 96 well plates and sedimented onto the well bottoms by centrifugation. […] Radioactivity was counted by using a Wallac, Wizard automatic gamma counter. The competition data were analysed by law of massaction computer modelling essentially as described (Bergstrom & Wikberg, Acta Pharmacol. Toxicol. 1986, 59, 270278).

As usually defined, the Ki is a dissociation constant, usually derived from enzyme kinetics or from competition with a known ligand. Read a low Ki as higher affinity.

Square brackets hold non-standard residues; d marks the D form. Ends that are not written are not given here.

T4 sequence (P41968 whole entry): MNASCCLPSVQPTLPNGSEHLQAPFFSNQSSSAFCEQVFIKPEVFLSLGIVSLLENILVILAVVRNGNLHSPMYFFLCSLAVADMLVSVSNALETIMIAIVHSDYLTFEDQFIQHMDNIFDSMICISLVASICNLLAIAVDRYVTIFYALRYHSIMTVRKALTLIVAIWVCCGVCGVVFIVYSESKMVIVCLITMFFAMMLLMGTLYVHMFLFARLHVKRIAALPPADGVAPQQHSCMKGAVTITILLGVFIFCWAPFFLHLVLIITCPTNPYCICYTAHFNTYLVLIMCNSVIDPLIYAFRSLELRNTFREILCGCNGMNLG
T2 sequence (Q01727 whole entry): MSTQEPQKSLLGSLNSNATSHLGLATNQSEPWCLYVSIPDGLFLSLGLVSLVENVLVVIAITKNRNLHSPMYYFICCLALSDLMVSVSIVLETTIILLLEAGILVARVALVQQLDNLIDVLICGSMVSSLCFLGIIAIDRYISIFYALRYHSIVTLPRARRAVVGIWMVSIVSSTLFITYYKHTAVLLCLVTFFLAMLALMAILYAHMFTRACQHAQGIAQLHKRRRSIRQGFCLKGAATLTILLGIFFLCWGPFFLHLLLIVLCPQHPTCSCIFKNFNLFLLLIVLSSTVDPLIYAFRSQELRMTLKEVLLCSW
T3 sequence (Q01726 whole entry): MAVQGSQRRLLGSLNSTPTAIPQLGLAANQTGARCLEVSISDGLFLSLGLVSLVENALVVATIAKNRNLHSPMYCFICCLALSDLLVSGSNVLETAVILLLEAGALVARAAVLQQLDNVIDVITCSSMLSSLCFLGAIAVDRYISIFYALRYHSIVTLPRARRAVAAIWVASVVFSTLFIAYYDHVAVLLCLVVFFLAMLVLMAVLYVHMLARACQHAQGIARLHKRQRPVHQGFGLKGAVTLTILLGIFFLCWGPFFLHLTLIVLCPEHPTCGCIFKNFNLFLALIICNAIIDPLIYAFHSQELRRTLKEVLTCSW
T1 sequence (P33032 whole entry): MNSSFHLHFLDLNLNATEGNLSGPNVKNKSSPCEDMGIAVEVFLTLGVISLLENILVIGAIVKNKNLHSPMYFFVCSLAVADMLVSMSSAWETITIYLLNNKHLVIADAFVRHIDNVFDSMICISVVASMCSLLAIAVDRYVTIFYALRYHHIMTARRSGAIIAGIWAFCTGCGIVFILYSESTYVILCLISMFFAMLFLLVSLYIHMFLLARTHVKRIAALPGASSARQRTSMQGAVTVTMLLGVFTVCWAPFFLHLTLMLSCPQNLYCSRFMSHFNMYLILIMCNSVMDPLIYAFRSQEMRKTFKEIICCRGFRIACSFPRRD
T5 sequence (P32245 whole entry): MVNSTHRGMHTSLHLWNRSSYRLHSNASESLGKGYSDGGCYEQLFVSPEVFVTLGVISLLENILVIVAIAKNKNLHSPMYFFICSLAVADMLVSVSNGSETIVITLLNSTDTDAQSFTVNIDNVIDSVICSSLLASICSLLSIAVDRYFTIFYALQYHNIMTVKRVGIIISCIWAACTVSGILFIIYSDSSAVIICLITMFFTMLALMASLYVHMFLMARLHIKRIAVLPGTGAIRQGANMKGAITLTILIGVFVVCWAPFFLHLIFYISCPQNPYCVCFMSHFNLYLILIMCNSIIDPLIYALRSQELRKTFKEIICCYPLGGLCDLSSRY

B1: MS09 (Ser-Ser-Ile-Ile-Ser-His-dPhe-Arg-Trp-Gly-Lys-Pro-Val-NH2) (peptide)
peptide: SSIISH[dF]RWGKPV-NH2
modifications: N-terminus assumed
SMILES: CC[C@H](C)[C@H](NC(=O)[C@H](CO)NC(=O)[C@@H](N)CO)C(=O)N[C@H](C(=O)N[C@@H](CO)C(=O)N[C@@H](Cc1c[nH]cn1)C(=O)N[C@H](Cc1ccccc1)C(=O)N[C@@H](CCCNC(=N)N)C(=O)N[C@@H](Cc1c[nH]c2ccccc12)C(=O)NCC(=O)N[C@@H](CCCCN)C(=O)N1CCC[C@H]1C(=O)N[C@H](C(N)=O)C(C)C)[C@@H](C)CC
notes: Synthetic 13-residue peptide amide; also called MSO9
As to B1, the Ki in the test with human MC5-receptor was 120 nM; in test [1], 0.06 nM; in test [2], 0.2 nM; in the test with human MC3-receptor [4] it was 7 nM; with human MC4-receptor it was 40 nM. Further, in test [3], the “% of 10 nM α-MSH (cAMP stimulation, 10 nM)” value worked out at 89%. In test [3], the “Fold stimulation of cAMP (10 nM)” value stood at 5.5 fold. Further, the “Fold stimulation of cAMP (1 µM)” value in test [3] came out at 7 fold.

B2: MS05 (Ser-Ser-Ile-Ile-Ser-His-Phe-Arg-Trp-Gly-Lys-Pro-Val-NH2) (peptide)
peptide: SSIISHFRWGKPV-NH2
modifications: also: trifluoroacetate salt
notes: Synthetic 13-residue peptide amide, obtained as the trifluoroacetate salt; also called MSO5; compound (3)
With B2, the Ki stood at 1 nM in test [1], 0.76 nM in test [2], 1.35 nM in test [6] and 1360 nM with human MC3-receptor [4]. Further, the “% of 10 nM α-MSH (cAMP stimulation, 10 nM)” value in test [3] came out at 69%. Further, in test [3], the “Fold stimulation of cAMP (10 nM)” value was 4.6 fold. In addition, in test [3], the “Fold stimulation of cAMP (1 µM)” value turned out to be 6.7 fold. In the test with human MC3-receptor [5], the “fold lower affinity than for the MC1-receptor” value came to 1800 fold.
